Columns and labels:
[1] = molecular target: T1, DLL3 (Homo sapiens, UniProt Q9NYJ7); assay: 4/37 internalization assay (staining at 4° C. versus 37° C., flow cytometry); format: cell-based; set-up: endogenous in cells; host or cells: NCI-H82; settings: NCI-H82 cells, compared with reference monoclonal antibody SC16
T1 sequence (Q9NYJ7 27-618): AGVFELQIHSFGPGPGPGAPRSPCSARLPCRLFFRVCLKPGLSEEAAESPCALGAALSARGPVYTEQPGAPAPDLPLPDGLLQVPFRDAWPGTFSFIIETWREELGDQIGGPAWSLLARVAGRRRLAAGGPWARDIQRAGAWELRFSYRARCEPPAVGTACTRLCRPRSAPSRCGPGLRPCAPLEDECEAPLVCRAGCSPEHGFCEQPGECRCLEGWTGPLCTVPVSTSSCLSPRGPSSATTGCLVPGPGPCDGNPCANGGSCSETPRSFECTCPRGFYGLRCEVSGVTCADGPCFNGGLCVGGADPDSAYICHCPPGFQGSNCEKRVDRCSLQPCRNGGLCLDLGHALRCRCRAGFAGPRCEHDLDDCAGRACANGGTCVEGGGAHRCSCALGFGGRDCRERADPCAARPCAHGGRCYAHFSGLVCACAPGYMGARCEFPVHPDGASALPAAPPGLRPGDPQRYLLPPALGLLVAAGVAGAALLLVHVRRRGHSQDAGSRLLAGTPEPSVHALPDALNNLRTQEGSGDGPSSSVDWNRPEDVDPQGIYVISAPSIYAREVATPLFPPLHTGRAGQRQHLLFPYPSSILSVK
Method: The four monoclonal antibodies (6-G23-F, 2-C8-A, 7-I1-B and 10-O18-A) were compared for their ability to internalize DLL3 by comparing the staining at 4° C. with that at 37° C. A reference monoclonal antibody SC16, which is known to internalize via DLL3 and to have ADC activity, and which was previously reported in the literature, was used as the positive control for internalization. NCI-H82 cells in exponential growth were harvested with trypsin/EDTA, washed once in RPMI containing 10% fetal calf serum (FCS) and resuspended in DMEM supplemented with 10% FCS at 2×10^7 cells/ml. 100 μl (2×10^6 cells) were added to U bottom 96 well plates. The test monoclonal antibodies (6-G23-F, 2-C8-A, 7-I1-B or 10-O18-A) or the reference monoclonal antibody were added to separate wells to give a final concentration of 10 μg/ml in duplicate plates. […] After 30 minutes incubation at 4° C. the cells were washed three times in cold wash buffer and either fixed in PBS 0.5% paraformaldehyde and analyzed by flow cytometry within 48 hours. The mean fluorescent intensity (MFI) ratios calculated by dividing the MFI obtained from the control plate (which incubated with the antibodies at 4° C.) by the corresponding MFI obtained from the experimental plate (which incubated with the antibodies at 37° C.) was taken as a relative measure of internalization. […]

[2] = molecular target: T2, DLL1 (Homo sapiens, UniProt O00548); assay: Selectivity of binding among delta-like ligands (FIG. 11)
T2 sequence (O00548 18-723): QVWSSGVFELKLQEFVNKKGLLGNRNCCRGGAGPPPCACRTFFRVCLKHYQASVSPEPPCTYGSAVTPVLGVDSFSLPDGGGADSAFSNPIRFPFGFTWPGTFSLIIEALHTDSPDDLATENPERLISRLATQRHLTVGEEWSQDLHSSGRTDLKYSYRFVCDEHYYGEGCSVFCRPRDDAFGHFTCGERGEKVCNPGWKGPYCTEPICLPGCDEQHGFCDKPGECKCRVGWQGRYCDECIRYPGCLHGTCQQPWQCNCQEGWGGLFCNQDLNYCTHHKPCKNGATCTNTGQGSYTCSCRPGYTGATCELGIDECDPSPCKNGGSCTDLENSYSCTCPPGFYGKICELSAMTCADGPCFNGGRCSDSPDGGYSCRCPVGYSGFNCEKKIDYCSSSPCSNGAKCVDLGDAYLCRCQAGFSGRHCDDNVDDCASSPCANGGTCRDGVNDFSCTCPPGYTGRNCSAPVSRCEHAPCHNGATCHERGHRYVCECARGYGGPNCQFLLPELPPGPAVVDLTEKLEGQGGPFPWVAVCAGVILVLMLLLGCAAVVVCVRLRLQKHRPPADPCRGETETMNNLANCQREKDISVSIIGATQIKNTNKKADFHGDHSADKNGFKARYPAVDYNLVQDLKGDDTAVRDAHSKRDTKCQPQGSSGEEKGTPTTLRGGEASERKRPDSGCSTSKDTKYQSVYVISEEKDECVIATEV

[3] = molecular target: T3, Histidine-tagged DLL3 antigen (DLL3-His) (Homo sapiens, UniProt Q9NYJ7); assay: Pairwise epitope binning, Carterra array SPR; settings: pairwise competition for binding to DLL3-His
T3 sequence (Q9NYJ7 27-479): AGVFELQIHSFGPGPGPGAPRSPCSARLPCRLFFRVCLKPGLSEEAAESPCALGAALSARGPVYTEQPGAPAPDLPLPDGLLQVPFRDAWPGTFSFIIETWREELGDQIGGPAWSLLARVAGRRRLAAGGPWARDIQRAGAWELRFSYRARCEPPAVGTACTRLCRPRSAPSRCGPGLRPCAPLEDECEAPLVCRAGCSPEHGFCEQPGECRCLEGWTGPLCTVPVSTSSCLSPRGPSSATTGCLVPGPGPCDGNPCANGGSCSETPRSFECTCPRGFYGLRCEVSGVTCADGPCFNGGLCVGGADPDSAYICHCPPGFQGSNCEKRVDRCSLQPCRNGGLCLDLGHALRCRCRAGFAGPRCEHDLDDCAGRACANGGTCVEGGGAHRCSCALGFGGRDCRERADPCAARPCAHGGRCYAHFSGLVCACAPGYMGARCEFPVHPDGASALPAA
Method: The panel of purified anti-DLL3 monoclonal antibodies and the reference monoclonal antibody were subjected to pairwise epitope binning on a Carterra® array surface plasmon resonance (SPR) assay platform (Carterra® Inc., Salt Lake City UT) where each monoclonal antibody was tested for the capture of Histidine-tagged DLL3 antigen (DLL3-His), and also for competing with every other antibody in the panel for the binding to DLL3-His. The antibodies were immobilized on a HC200M chip (ligand) through standard amine coupling techniques by the print array method. Then in each cycle antigen was injected across the entire array followed by a single antibody (analyte). At the end of each cycle the surface was regenerated to remove antigen and analyte before a new cycle started. As shown in the Table below, three different bins were identified with the panel with 7-I1-B and 2-C8-A mapping to bin 2 while 6-G23-F was in bin 3 and 10-O18-A was in bin 1.

[4] = molecular target: T1, DLL3; assay: Selectivity of binding among delta-like ligands (FIG. 11)
[5] = molecular target: DLL4 (Homo sapiens, UniProt Q9NR61); assay: as above
Chain of DLL4 (Q9NR61 27-685): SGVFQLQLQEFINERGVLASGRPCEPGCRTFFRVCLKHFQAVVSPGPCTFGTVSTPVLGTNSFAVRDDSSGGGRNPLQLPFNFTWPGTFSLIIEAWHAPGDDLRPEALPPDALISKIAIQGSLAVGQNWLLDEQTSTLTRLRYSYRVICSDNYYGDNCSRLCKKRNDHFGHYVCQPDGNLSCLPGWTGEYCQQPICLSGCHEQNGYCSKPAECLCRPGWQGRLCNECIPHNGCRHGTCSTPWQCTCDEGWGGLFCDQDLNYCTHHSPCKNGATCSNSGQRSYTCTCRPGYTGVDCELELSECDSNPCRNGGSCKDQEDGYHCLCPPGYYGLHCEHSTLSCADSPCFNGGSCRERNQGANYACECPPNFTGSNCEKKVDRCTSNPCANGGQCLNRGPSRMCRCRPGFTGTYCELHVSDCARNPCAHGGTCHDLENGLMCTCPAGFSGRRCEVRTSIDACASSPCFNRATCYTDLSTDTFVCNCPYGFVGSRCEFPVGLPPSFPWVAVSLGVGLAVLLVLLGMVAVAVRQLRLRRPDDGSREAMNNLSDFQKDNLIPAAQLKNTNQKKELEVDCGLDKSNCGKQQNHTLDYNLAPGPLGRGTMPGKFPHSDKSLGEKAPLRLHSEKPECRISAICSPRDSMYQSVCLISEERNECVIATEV

[6] = test system: 293 (negative control); assay: Flow cytometry binding to 293 cells (negative control); settings: 10 μg/ml
Method: The four monoclonal antibodies (6-G23-F, 2-C8-A, 7-I1-B and 10-O18-A) were tested for their ability to bind to mouse and cynomolgous DLL3 as well as endogenous human DLL3 by flow cytometry. For this purpose, HEK293 cells were transfected with plasmid DNA encoding full-length human, mouse or cynomolgous DLL3 and used in the experiment. Briefly […] transfected HEK293 cells or NCI-H82 primary cells were added in FACS buffer PBS 0.5% BSA to the wells of a 96 well U bottom plate and purified monoclonal added to 10 μg/ml. After 30 minutes incubation at 4° C. the cells were washed 3 times in FACS buffer and incubated with a PE labelled F(ab)2 anti-mouse IgG H and L 2nd stage. After another 30 minutes incubation at 4° C. the cells were washed three times in FACS buffer and analyzed on the flow cytometer. Data are presented at the ratio of the Mean Fluorescent Intensity for the monoclonal divided by the background staining with the 2nd stage.

binding to DLL1 [2]: not DLL1 or DLL4
Epitope Bin [3]: 2
binding to DLL3 [4]: selectively bind DLL3
binding to DLL4 [5]: not DLL1 or DLL4
B1: 2-C8-A: anti-DLL3 monoclonal antibody, VH SEQ ID NO: 12 and VL SEQ ID NO: 17 (antibody, V domains shown)
VH: EVQLVESGGGLVQPGGSQRLSCAASGFTFSSYWMNWVRQAPGKGLEWVANIKEDGSEKYYVDSVKGRFTISRDNAKNSLYLQMNSLRAEDTAVYYCARDPGWAPFDYWGQGTLVTVSS
VL: DIQMSQSPSSLSASVGDRVTITCRASQGISNYLAWFQQKPGKAPKSLIYAASSLQSGVPSKFSGSGSGTDFTLAISSLQPEDFATYYCQQYNSFPYTFGQGTTLEIK
ability to internalize DLL3 [1]: able to internalize on binding DLL3 but not to the extent of the reference monoclonal antibody
293 (negative control) (ratio of MFI for the monoclonal divided by background staining with the 2nd stage) [6]: 0.59

— patent US20240115720A1, “ANTIBODY-PYRROLOBENZODIAZEPINE DERIVATIVE CONJUGATE” (MEMORIAL SLOAN KETTERING CANCER CENTER, priority 2021, published 2024)
